Reference: the supplement of paper PMC10065799, “High-throughput profiling of sequence recognition by tyrosine kinases and SH2 domains using bacterial peptide display” (eLife, 2023)

Columns and labels:
[1] = target: EPHB1 (UniProt P54762); experiment: phosphorylation enrichment, bacterial display (enrichment ratio); higher = better substrate or ligand; peptides without Tyr show the background
[2] = test system: c-Abl (mouse); experiment: as above
[3] = test system: c-Src; experiment: as above
[4] = target: Jak2 (UniProt O60674); experiment: as above
Jak2, sequence (O60674 whole entry, looked up): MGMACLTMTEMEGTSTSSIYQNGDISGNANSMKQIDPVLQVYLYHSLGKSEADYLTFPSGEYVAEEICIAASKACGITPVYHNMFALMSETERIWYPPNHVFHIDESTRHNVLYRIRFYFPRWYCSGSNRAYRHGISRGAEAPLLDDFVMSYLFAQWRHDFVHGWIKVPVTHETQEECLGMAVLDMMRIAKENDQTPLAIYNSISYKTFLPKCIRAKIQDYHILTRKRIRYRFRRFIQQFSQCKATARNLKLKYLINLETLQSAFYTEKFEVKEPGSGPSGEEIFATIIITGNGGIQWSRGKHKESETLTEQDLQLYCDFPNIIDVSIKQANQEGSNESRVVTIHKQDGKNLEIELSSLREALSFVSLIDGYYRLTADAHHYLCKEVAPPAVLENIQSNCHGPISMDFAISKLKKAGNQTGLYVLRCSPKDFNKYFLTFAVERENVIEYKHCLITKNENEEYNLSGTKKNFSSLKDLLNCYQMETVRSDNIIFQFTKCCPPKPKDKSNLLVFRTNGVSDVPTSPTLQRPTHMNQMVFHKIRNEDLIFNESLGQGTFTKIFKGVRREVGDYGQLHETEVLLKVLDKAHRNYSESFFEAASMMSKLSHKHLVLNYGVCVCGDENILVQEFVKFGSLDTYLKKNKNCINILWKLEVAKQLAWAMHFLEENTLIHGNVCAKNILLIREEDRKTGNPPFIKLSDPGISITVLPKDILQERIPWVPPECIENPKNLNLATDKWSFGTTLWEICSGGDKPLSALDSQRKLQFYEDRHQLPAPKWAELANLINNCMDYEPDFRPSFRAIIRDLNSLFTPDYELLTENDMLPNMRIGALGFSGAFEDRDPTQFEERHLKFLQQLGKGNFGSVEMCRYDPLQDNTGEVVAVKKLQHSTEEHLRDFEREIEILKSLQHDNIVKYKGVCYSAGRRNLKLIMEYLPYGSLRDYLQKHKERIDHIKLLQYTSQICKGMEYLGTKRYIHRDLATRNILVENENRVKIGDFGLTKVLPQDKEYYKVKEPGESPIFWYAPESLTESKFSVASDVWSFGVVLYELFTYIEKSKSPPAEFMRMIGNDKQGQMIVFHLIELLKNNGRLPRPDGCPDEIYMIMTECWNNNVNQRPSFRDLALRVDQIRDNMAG

[5] = test system: AncSZ; experiment: as above
[6] = target: Hck (UniProt P08631); experiment: as above
Hck, sequence (P08631 whole entry, looked up): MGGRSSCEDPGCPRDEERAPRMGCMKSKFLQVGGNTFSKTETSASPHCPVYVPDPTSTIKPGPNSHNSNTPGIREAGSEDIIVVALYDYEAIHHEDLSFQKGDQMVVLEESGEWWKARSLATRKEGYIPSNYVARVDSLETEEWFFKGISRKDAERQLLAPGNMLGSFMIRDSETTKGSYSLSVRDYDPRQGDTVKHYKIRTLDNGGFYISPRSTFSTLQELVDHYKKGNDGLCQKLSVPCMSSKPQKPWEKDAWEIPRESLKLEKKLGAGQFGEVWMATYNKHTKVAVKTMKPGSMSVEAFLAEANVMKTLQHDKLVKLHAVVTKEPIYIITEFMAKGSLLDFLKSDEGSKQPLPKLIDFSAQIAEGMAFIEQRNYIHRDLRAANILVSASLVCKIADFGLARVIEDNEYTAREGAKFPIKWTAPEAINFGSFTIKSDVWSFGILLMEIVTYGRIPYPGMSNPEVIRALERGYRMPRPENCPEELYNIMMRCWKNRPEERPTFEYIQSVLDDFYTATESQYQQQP

[7] = target: EPHB2 (UniProt P29323); experiment: as above
EPHB2, sequence (P29323 whole entry, looked up): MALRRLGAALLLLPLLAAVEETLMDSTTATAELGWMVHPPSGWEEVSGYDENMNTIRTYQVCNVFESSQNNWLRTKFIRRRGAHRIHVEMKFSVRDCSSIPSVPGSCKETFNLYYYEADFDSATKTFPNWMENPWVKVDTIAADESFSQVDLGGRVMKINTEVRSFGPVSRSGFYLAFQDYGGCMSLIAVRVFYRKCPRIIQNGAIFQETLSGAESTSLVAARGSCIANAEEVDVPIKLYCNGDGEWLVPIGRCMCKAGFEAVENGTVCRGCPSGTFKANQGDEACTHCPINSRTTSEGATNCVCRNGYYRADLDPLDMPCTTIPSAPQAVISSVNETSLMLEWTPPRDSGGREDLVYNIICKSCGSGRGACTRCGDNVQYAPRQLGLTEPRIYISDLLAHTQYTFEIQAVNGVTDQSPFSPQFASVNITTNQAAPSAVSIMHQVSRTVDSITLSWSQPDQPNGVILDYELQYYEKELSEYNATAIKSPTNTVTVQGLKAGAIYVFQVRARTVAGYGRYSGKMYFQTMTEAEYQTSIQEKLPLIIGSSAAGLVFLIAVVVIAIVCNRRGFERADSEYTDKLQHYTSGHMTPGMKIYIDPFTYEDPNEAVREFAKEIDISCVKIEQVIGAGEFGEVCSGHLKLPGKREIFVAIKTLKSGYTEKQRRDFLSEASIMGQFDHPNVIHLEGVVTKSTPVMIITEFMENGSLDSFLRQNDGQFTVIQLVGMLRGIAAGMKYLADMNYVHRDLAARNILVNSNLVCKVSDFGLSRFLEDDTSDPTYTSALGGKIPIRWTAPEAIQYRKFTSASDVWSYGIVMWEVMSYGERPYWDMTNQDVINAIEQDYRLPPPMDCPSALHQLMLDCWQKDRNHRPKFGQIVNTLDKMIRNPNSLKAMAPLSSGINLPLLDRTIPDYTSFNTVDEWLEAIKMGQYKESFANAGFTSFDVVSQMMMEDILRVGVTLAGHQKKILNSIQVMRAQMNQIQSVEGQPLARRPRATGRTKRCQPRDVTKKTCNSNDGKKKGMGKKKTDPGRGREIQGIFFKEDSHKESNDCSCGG

[8] = test system: Fer (mouse); experiment: as above
[9] = target: Fes (UniProt P07332); experiment: as above
[10] = target: MERTK (UniProt Q12866); experiment: as above
MERTK, sequence (Q12866 whole entry, looked up): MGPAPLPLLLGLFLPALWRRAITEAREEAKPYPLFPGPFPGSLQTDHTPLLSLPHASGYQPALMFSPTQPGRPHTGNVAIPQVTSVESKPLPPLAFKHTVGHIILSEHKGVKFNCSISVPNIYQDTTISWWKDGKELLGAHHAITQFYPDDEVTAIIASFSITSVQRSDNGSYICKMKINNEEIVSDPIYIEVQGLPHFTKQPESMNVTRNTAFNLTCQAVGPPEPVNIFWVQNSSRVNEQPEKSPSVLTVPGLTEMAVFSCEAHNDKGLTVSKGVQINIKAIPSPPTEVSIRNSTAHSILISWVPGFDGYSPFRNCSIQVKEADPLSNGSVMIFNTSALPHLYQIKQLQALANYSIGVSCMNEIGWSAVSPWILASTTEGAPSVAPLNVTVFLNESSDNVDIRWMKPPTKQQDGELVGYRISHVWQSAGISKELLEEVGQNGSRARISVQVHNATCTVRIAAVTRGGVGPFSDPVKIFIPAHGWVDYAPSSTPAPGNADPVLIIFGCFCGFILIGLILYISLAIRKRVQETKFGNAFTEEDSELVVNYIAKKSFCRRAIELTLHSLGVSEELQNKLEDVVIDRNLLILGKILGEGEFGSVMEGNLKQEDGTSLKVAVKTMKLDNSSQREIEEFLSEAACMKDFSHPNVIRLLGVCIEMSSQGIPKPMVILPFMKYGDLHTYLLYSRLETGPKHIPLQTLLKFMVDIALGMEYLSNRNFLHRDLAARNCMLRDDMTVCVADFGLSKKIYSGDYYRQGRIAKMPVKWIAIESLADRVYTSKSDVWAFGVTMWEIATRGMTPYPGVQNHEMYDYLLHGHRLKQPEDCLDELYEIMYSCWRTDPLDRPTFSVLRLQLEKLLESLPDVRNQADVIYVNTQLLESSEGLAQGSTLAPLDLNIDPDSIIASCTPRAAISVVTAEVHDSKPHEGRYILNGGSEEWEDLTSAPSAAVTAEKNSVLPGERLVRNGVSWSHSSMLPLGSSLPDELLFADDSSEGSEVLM

[11] = target: Fyn (UniProt P06241); experiment: as above
[12] = target: FGFR1 (UniProt P11362); experiment: as above
FGFR1, sequence (P11362 whole entry, looked up): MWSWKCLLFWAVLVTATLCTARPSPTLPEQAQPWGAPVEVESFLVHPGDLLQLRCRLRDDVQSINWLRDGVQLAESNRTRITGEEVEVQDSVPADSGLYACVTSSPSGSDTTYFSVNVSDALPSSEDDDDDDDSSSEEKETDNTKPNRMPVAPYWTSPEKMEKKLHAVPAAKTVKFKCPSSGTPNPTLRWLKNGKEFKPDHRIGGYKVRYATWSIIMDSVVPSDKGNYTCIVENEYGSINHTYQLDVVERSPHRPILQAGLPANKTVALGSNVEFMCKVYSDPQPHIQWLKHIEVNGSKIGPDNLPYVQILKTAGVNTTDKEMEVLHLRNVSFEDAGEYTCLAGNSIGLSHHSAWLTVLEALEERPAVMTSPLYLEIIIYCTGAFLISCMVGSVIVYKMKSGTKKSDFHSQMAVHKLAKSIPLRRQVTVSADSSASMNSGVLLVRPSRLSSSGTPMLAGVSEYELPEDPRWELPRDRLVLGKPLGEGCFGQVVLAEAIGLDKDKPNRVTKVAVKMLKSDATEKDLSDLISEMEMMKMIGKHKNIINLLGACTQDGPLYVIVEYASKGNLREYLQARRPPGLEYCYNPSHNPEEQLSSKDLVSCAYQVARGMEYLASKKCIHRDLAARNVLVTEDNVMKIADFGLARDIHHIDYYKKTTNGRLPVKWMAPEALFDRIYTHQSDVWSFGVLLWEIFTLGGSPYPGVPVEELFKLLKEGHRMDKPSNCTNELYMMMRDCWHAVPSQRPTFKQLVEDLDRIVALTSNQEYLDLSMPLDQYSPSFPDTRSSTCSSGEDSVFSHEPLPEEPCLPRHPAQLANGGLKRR

[13] = target: FGFR3 (UniProt P22607); experiment: as above
[14] = target: SHP2-C SH2; experiment: SH2 binding enrichment of the phosphorylated peptide, bacterial display (enrichment ratio); higher = better substrate or ligand; peptides without Tyr show the background
[15] = target: c-Src SH2; experiment: as above
[16] = target: Grb2 SH2 (UniProt P62993); experiment: as above
Grb2 SH2, sequence (P62993 whole entry, looked up, the tested form may be a part): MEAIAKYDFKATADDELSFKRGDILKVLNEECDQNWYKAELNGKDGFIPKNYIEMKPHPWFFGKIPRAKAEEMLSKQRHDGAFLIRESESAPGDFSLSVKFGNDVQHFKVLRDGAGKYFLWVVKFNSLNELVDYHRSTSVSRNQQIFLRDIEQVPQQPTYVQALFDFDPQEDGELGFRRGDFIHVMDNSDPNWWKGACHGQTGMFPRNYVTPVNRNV
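For SH2 binding enrichment of the phosphorylated peptide, bacterial display in this document: peptide library displayed on the E. coli surface as eCPX fusions, selected cells deep-sequenced, score is each peptide's frequency after selection divided by its frequency in the input.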
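For phosphorylation enrichment, bacterial display in this document: 11-residue human phosphosite peptides and single-mutation variants displayed on the E. coli surface, counted by deep sequencing, each peptide's frequency after selection divided by its frequency in the unselected input library; frequency after pTyr selection over input frequency; kinase dosed for 20-30% of maximal phosphorylation in three min.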

Sequence | phosphorylation enrichment [1] | phosphorylation enrichment [2] | phosphorylation enrichment [3] | phosphorylation enrichment [4] | phosphorylation enrichment [5] | phosphorylation enrichment [6] | phosphorylation enrichment [7] | phosphorylation enrichment [8] | phosphorylation enrichment [9] | phosphorylation enrichment [10] | phosphorylation enrichment [11] | phosphorylation enrichment [12] | phosphorylation enrichment [13] | SH2 binding enrichment [14] | SH2 binding enrichment [15] | SH2 binding enrichment [16]
FPCSVYVPDEW [INSR_Y1011] | 0.707 | 1.08 | 1.8 | 1.11 | 1.5 | 0.675 | 0.606 | 0.72 | 1.3 | 0.476 | 0.714 | 0.623 | 0.769 | 1.35 | 1.13 | 0.858
PTQLPYDHKWK [KIT_Y578_E583K] | 0.484 | 0.634 | 0.425 | 0.626 | 0.725 | 0.397 | 0.299 | 0.478 | 0.677 | 0.28 | 0.433 | 0.58 | 0.439 | 0.512 | 0.437 | 0.756
EQLQSYQAEII [KRT33A_Y268] | 0.524 | 0.988 | 0.555 | 1.15 | 1.12 | 0.518 | 0.571 | 0.526 | 1.16 | 0.45 | 0.516 | 0.54 | 0.821 | 0.683 | 0.472 | 0.708
PCPANYFAFKI [FAM3D_Y65] | 6.38 | 7.14 | 4.44 | 8.15 | 2.11 | 1.34 | 3.72 | 1.12 | 2.29 | 12.1 | 1.14 | 9.03 | 7.65 | 0.69 | 0.594 | 1.03
ALPVFYAATIA [SLC20A2_Y187] | 0.905 | 0.831 | 0.598 | 0.886 | 0.823 | 0.956 | 0.756 | 1.2 | 1.03 | 2.96 | 0.544 | 0.394 | 0.651 | 0.889 | 0.669 | 0.793
FSCLPYRRLAY [SLC52A2_Y305_G306R] | 0.613 | 1.22 | 0.766 | 0.837 | 0.95 | 0.663 | 0.547 | 0.5 | 0.671 | 0.621 | 0.691 | 0.656 | 0.758 | 0.653 | 0.448 | 0.942
ADTETYLLEKS [MYH7_Y266_I263T] | 0.449 | 0.709 | 0.551 | 1.01 | 1.12 | 0.512 | 0.586 | 0.607 | 1.1 | 0.385 | 0.603 | 0.57 | 0.745 | 0.785 | 0.56 | 0.859
RLGDLYEEEMR [VIM_Y150] | 0.615 | 0.585 | 0.425 | 0.938 | 0.72 | 0.379 | 0.691 | 0.377 | 1.14 | 0.335 | 0.487 | 0.48 | 0.487 | 0.567 | 0.848 | 0.876
ESSKAYERALS [TTC37_Y1074] | 0.413 | 0.618 | 0.409 | 0.594 | 0.77 | 0.444 | 0.624 | 0.418 | 0.816 | 0.417 | 0.412 | 0.423 | 0.476 | 0.571 | 0.468 | 0.787
STEVIYQPRRK [STK11_Y36] | 0.437 | 1 | 0.704 | 0.612 | 0.603 | 0.683 | 0.527 | 0.473 | 0.523 | 0.643 | 0.52 | 0.424 | 0.539 | 0.467 | 0.376 | 0.585
MSRYIYSTDYY [NTRK1_Y676_D674Y] | 8.88 | 0.879 | 7.15 | 2.09 | 2.16 | 5.21 | 11.4 | 1.89 | 1.41 | 12.3 | 6.8 | 8.47 | 6.27 | 1.82 | 1.53 | 0.906
EVEPRYVVLYD [ERCC4_Y577] | 3.5 | 0.91 | 0.683 | 1.07 | 1.22 | 0.646 | 3.44 | 0.547 | 1.13 | 5.22 | 0.664 | 1.36 | 0.986 | 1.84 | 8.72 | 0.894
DGQSVYKLTDF [TBK1_Y153] | 0.426 | 0.444 | 3.06 | 0.765 | 0.725 | 0.751 | 0.37 | 0.775 | 0.775 | 0.471 | 2.52 | 0.434 | 0.474 | 0.683 | 0.513 | 0.678
MSDVPYVMNRG [ACAT1_Y161_N158D] | 0.4 | 0.549 | 0.439 | 0.652 | 0.669 | 0.358 | 0.452 | 0.42 | 0.68 | 0.348 | 0.316 | 0.403 | 0.501 | 0.617 | 0.452 | 1.11
RFLERDIYNRE [HLA-DPB1_Y57_Y57D] | 1.74 | 0.787 | 1.8 | 0.764 | 2.71 | 10.7 | 1.48 | 1.85 | 2.16 | 1.26 | 5.19 | 1.18 | 2.92 | 0.882 | 0.877 | 1.08
PRAGVYPEKDQ [DNM2_Y626_L621P] | 0.734 | 0.865 | 0.682 | 1.08 | 1.16 | 0.662 | 0.622 | 0.658 | 1.26 | 0.511 | 0.658 | 0.642 | 0.759 | 0.917 | 0.403 | 0.635
HNELFYEAAEH [VANGL1_Y345_E347A_YF] | 0.586 | 1.47 | 1.89 | 0.944 | 1.85 | 1.51 | 0.842 | 9.73 | 1.55 | 1.46 | 1.05 | 0.826 | 0.884 | 0.531 | 0.749 | 0.901

Sequence | phosphorylation enrichment [1] | phosphorylation enrichment [2] | phosphorylation enrichment [3] | phosphorylation enrichment [4] | phosphorylation enrichment [5] | phosphorylation enrichment [6] | phosphorylation enrichment [7] | phosphorylation enrichment [8] | phosphorylation enrichment [9] | phosphorylation enrichment [10] | phosphorylation enrichment [11] | phosphorylation enrichment [12] | phosphorylation enrichment [13] | SH2 binding enrichment [14] | SH2 binding enrichment [15] | SH2 binding enrichment [16]
PEAALYGRFTI [FYN_Y440] | 0.59 | 2.83 | 6.87 | 1.38 | 0.875 | 6.52 | 0.514 | 1.67 | 1.11 | 1.9 | 7.72 | 0.646 | 0.645 | 0.757 | 0.418 | 0.694
LHQSTYQCYDV [SLC7A14_Y693_R695C] | 2.12 | 1.35 | 5.21 | 1.31 | 1.82 | 2.78 | 2.85 | 2.84 | 1.53 | 1.06 | 3.95 | 1.12 | 1.2 | 0.513 | 0.536 | 0.756
LIYTNYEVGKD [GSTP1_Y112_A114V] | 13.4 | 14.1 | 8.72 | 1.33 | 2.37 | 8.89 | 16.8 | 17.7 | 1.96 | 11.3 | 11.9 | 7.05 | 5.54 | 1.09 | 0.801 | 1.12
EARRVYRDIIH [ALDH5A1_Y175_G176R] | 0.318 | 0.528 | 0.41 | 0.475 | 0.549 | 0.325 | 0.386 | 0.305 | 0.547 | 0.403 | 0.352 | 0.357 | 0.415 | 0.75 | 0.513 | 0.928
TQNGVYSAANY [DDX5_Y535] | 1.26 | 1.04 | 6.11 | 0.5 | 0.69 | 8.68 | 1.85 | 1.87 | 0.699 | 4.8 | 7.45 | 0.454 | 0.514 | 0.536 | 0.838 | 0.842
SSYDTYHLSRE [KIR3DL2_Y253_I252T] | 0.451 | 0.657 | 3.69 | 0.527 | 0.709 | 4.59 | 0.841 | 0.457 | 0.713 | 0.583 | 6.54 | 0.6 | 0.569 | 0.529 | 0.632 | 0.685
REDIFYTSKLW [AKR1C2_Y81] | 0.978 | 0.607 | 0.438 | 0.947 | 1.07 | 0.77 | 0.796 | 0.543 | 1.12 | 0.645 | 0.692 | 0.592 | 1.01 | 0.838 | 0.598 | 1.04
IKKFKYGIEEH [GJA1_Y137] | 0.42 | 0.498 | 0.336 | 0.582 | 0.836 | 0.402 | 0.497 | 0.382 | 0.697 | 0.323 | 0.374 | 0.4 | 0.476 | 0.61 | 0.502 | 0.644
LSDVIYVILRK [PMP22_Y153_G150D] | 0.57 | 0.617 | 0.38 | 1.23 | 1.27 | 0.391 | 0.55 | 0.398 | 1.28 | 0.278 | 0.414 | 0.456 | 0.684 | 1.31 | 0.58 | 1.17
FDEFRYRSFIK [CFTR_Y517_V520F_YF] | 0.417 | 0.454 | 0.419 | 0.497 | 0.775 | 0.511 | 0.39 | 0.556 | 0.764 | 0.422 | 0.467 | 0.498 | 0.526 | 0.41 | 0.414 | 0.702
NAPNSYGRRPI [CDKN2A_Y44] | 0.581 | 0.885 | 0.75 | 0.76 | 1.23 | 0.757 | 1.21 | 1.2 | 0.952 | 0.713 | 0.678 | 0.692 | 0.81 | 0.799 | 0.392 | 0.726
QMVDMYASSFM [AVPR2_Y124_G122D_YF] | 0.992 | 1.2 | 2.34 | 1.47 | 1.29 | 1.58 | 0.805 | 0.9 | 1.31 | 0.707 | 1.35 | 0.779 | 0.923 | 0.575 | 0.707 | 1.07
FLAVGYHKPFI [IDS_Y225_H229Y_YF] | 0.359 | 3.35 | 0.39 | 1.29 | 0.701 | 0.456 | 0.416 | 0.435 | 0.8 | 0.428 | 0.38 | 0.381 | 0.647 | 1.19 | 1.45 | 1.14
PVDVAYRRGYF [PLEC_Y2967] | 0.385 | 0.743 | 0.361 | 0.556 | 0.867 | 0.587 | 0.577 | 0.601 | 0.661 | 0.399 | 0.642 | 0.565 | 0.588 | 0.519 | 0.456 | 0.876
DDFNLYINVKL [MTHFD1_Y52_S49F] | 0.86 | 0.984 | 0.472 | 1.67 | 1.47 | 0.558 | 0.563 | 0.38 | 1.67 | 0.483 | 0.46 | 0.511 | 0.997 | 0.732 | 0.458 | 0.794
KVGNEYITKGQ [MYH7_Y410_V411I] | 0.358 | 0.564 | 0.403 | 0.561 | 0.593 | 0.399 | 0.414 | 0.315 | 0.682 | 0.356 | 0.376 | 0.444 | 0.443 | 0.495 | 0.43 | 0.896
